Test results as given in patent publication US20150343088A1 (KAGOSHIMA UNIVERSITY, published 2015).

Molecular target: T1, human folate receptor β (human, UniProt P14207 17-230)
T1 construct: whole, on cells; also called FRβ; FR-β
Assay: flow cytometry on human FRβ-expressing B300-19 cells
Procedure: The cells were further reacted with an anti-rat antibody labeled with APC. After the end of reaction, stainability was determined using a flow cytometer.

T1 sequence (P14207 17-230): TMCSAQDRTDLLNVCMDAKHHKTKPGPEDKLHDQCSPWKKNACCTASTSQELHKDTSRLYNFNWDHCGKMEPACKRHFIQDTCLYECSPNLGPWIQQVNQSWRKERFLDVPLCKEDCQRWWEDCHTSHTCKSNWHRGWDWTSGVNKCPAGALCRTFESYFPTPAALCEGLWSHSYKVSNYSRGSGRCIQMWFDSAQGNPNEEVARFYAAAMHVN

B1: anti-human FRα/β rat monoclonal antibody (clone name: No. 5) (antibody, V domains shown)
VH: QVQLKESGPGLVQPSQTLSLTCTVSGFSLTSNSVSWVRQPPGKGLEWMGAIWSGGSTDYNSALKSRLSISKDTSKSQVFLKMNSLQTEDTAIYFCTRYYGYTYFAYWGQGVMVTVSS
VL: DIQMTQSPASLSASLEEIVTITCQASQDIGNWLAWYQQKPGKSPQLLIYDAIRLADGVPSRFSGSRSGTQYSLKISRLQVEDIGDYYCQQGQSNPRTFGGGTKLELK
notes: also called antibody No. 5; anti-human FRα/β antibody
B1: binds.
